Data set [1] has as its system P69949. The data set is described as follows: AUC; each his-tagged enolase alone in SPR binding buffer (no Mg2+, with EDTA, pH 7.4); octamer to monomers. (In SPR one partner is held on a chip, and binding of the other changes the refractive index at the surface.)
Data set [2] relates to P69949. Kind of data set: AUC; F137L/E363G enolase incubated at pH 4.5 for one hour and dialysed overnight against SPR binding buffer; soluble fraction; octamer to monomers.
Data set [3] addresses canine plasminogen (canine). Kind of data set: SPR; dPgn amine-coupled at pH 4.5 to CM4 chip (340 RU); titration with F137L/E363G Str enolase 0-500 nM (2-fold series), 25°C.
For data set [4], the target named is Streptococcus pyogenes enolase F137L/E363G with an N-terminal hexa-histidine tag (Streptococcus pyogenes) (UniProt P69949). The data set is described as follows: AUC; each his-tagged enolase alone in SPR binding buffer (no Mg2+, with EDTA, pH 7.4); octamer to monomers.
Data set [5] shares this target. The data set is described as follows: AUC; F137L/E363G enolase incubated at pH 4.5 for one hour and dialysed overnight against SPR binding buffer; soluble fraction; octamer to monomers.
In data set [6] the target is canine plasminogen (canine). Kind of data set: co-sedimentation; dPgn made to precipitate with reductant (0.2 M DTT) in the presence of native soluble Str enolase; centrifuged, pellets and supernates on SDS-PAGE; initial dPgn:enolase monomer 1:1 or 1:3.
Data set [7] has as its target canine plasminogen (canine). The data set is described as follows: ITC; Str enolase brought to pH 9 (precipitated), dialysed back to pH 6.9, 30% activity left; enolase titrated into dPgn, close to 20°C. For orientation: ITC needs no label: the signal is the heat of the interaction.
Data set [8] has as its target fluorescently labeled, catalytically inactive derivative of human plasminogen (5'IAF-Pg S741C) (human). The data set is described as follows: fluorescence polarisation; Str enolase first brought to pH 4.5, then diluted into phosphate buffer pH 6.7 (non-native enolase); labelled hPgn 140 nM, Str enolase 0.057 mM, 20°C. For orientation: Polarisation of emitted light reports the rotation of a fluorescent probe.

Data set [9] addresses Streptococcus pyogenes enolase F137L/E363G with an N-terminal hexa-histidine tag (Streptococcus pyogenes) (UniProt P69949). Kind of data set: AUC; sedimentation velocity of each purified enolase alone, native (data not shown); octamer.
Data set [10] shares this target. Kind of data set: SPR; N-terminal His6 F137L/E363G Str enolase captured at neutral pH on Ni-NTA chip (~150 RU); single-cycle titration 15-2000 nM.
For data set [11] the target is unchanged. The data set is described as follows: ITC; Str enolase brought to pH 4.5 (precipitated), dialysed to pH 6.9, dissolved in 27% urea, dialysed again at pH 6.9, about 30% specific activity left; enolase titrated with dPgn, close to 20°C.
Data set [12] shares this target. The data set is described as follows: co-sedimentation; Str enolase (300 nM) adsorbed to azolectin (phosphatidyl choline) micelles, dPgn 1000 nM, 10 mM potassium phosphate, 100 mM NaCl, 4°C three days, 20 000 rpm 2 h, SDS-PAGE of pellets and supernates.
Data set [13] concerns the target wild type Streptococcus pyogenes enolase with a C-terminal deca-histidine tag (Streptococcus pyogenes) (UniProt P69949). The data set is described as follows: AUC; each his-tagged enolase alone in SPR binding buffer (no Mg2+, with EDTA, pH 7.4); octamer to monomers.
For data set [14] the target is unchanged. The data set is described as follows: AUC; sedimentation velocity of each purified enolase alone, native (data not shown); octamer.
In data set [15] the target is wild type Streptococcus pyogenes enolase with an N-terminal hexa-histidine tag (Streptococcus pyogenes) (UniProt P69949). Kind of data set: AUC; each his-tagged enolase alone in SPR binding buffer (no Mg2+, with EDTA, pH 7.4); octamer to monomers.
Data set [16] has the same target. Kind of data set: AUC; sedimentation velocity of each purified enolase alone, native (data not shown); octamer.
Data set [17] concerns the target wild type Streptococcus pyogenes enolase with no tag (Streptococcus pyogenes) (UniProt P69949). The data set is described as above.

One may read the stoichiometry N as a count of units in the complex or per binding partner.

Several values for one entry are separate records, joined by “and”; a condition that tells them apart may be missing. Identical values can stand only once.

For “Streptococcus pyogenes enolase F137L/E363G with an N-terminal hexa-histidine tag”, the % monomeric in data set [1] stood at 36%; in [2] it was 75% was monomeric.

“Streptococcus pyogenes enolase F137L/E363G with an N-terminal hexa-histidine tag (from UniProt P69949 1-435) (enzyme)” had a half saturation of all the association phases in data set [3] of 50 nM. This substance registered a % octameric in [4] of 57%. For the same substance, in data set [5], the % octameric was determined as 19%. For the same substance, in [6], the % of the precipitated protein that was Str enolase (initial ratio 1:1) was 12%, the % of the precipitated protein that was Str enolase (initial ratio 1:3) amounted to 25%, the dPgn:enolase ratio in the pellet (initial ratio 1:1) (dPgn per enolase) came out at 6 and the dPgn:enolase ratio in the pellet (initial ratio 1:3) (dPgn per enolase) was found to be 3. Further, the stoichiometry N (sites per enolase monomer) in [7] came out at 0.18. The substance further had a P (polarization) in [8] of 0.43. In data set [9], this substance yielded a % octameric greater than 90% and a stoichiometry N of 8.

For the substance canine plasminogen (natural protein), the stoichiometry N (dPgn per enolase monomer) in data set [10] came out at 1; in data set [11] it was 0.34. Besides, in [12], the amount of dPgn relative to Str enolase that co-sedimented (Str enolase per dPgn (as 1:x)) is 1 and 1.2.

Substance “wild type Streptococcus pyogenes enolase with a C-terminal deca-histidine tag” showed a % monomeric in data set [1] of 18%.

On to “wild type Streptococcus pyogenes enolase with a C-terminal deca-histidine tag (from UniProt P69949 1-435) (enzyme)”, for which the % octameric in [13] was 68%; in data set [14], greater than 90%. This substance showed a stoichiometry N in [14] of 8.

As for “wild type Streptococcus pyogenes enolase with an N-terminal hexa-histidine tag”, the % monomeric in [1] was 5%.

Consider “wild type Streptococcus pyogenes enolase with an N-terminal hexa-histidine tag (from UniProt P69949 1-435) (enzyme)”, for which, in data set [15], the % octameric stood at 88%. In data set [16], this substance yielded a % octameric greater than 90% and a stoichiometry N of 8.

For “wild type Streptococcus pyogenes enolase with no tag (from UniProt P69949 1-435) (enzyme)”, in [17], the % octameric is greater than 90% and the stoichiometry N worked out at 8.

These data come from publication PMC3235116.
